Substitutions are numbered along the chain they refer to.
B1: LHG-10.4-D (antibody, human IgG1, V domains shown)
VH: EVQLVQPGAELRNSGASVKVSCKASGYRFTSYYIDWVRQAPGQGLEWMGRIDPEDGGTKYAQKFQGRVTFTADTSTSTAYVELSSLRSEDTAVYYCARNEWETVVVGDLMYEYEYWGQGTQVTVSS
VL: DIQMTQSPSSLSASLGDRVTITCQASQSISSYLAWYQQKPGQAPKLLIYGTSRLKTGVPSRFSGSGSGTSFTLTISGLEAEDAGTYYCQQYYSAPVTFGQGTKVELK
B2: LHG-10.5-D (antibody, human IgG1, V domains shown)
VH: B1 VH
VL: DIQMTQSPSSLSPSLGDRVTITCQASQTISSFLAWYHQKPGQPPKLLIYRASIPQTGVPSRFSGSGSGTSFTLTIGGLEAEDAGTYYCQQYVSAPPTFGQGTKVELK
B3: LHG-10.5 (antibody, human IgG1, V domains shown)
VH: B1 VH
VL: B2 VL
notes: VK-shuffled variant of LHG-10, human IgG1
B4: LHG-10.4 (antibody, human IgG1, V domains shown)
VH: B1 VH
VL: B1 VL
notes: as for B3
B5: LHG-10.3 (antibody, human IgG1, V domains shown)
VH: B1 VH
VL: B1 VL with S30V, T51A, K55Q, Y92A, K103G
notes: as for B3
B6: LHG-10.6 (antibody, human IgG1, V domains shown)
VH: B1 VH
VL: B1 VL with K45N, L46I, T51A, Y92A, A94V
notes: as for B3
B7: LHG-10.6-D (antibody, human IgG1, V domains shown)
VH: B1 VH
VL: B1 VL with K45N, L46I, T51A, Y92A, A94V
notes: also called LHG-10.6N297Q
B8: LHG-10-D (antibody, human IgG1, V domains shown)
VH: B1 VH
VL: B1 VL with S9T, T51A, K55Q, Y92D, A94L
B9: LHG-10.3-D (antibody, human IgG1, V domains shown)
VH: B1 VH
VL: B1 VL with S30V, T51A, K55Q, Y92A, K103G
B10: MHGARP8 (antibody, V domains shown)
VH: QVQLKESGPGLVAPSQSLSITCTVSGFSLTGYGINWVRQPPGKGLEWLGMIWSDGSTDYNSVLTSRLRISKDNSNSQVFLKMNSLQVDDTARYYCARDRNYYDYDGAMDYWGQGTSVTVSS
VL: DIQVTQSSSYLSVSLGDRVTITCKASDHIKNWLAWYQQKPGIAPRLLVSGATSLEAGVPSRFSGSGSGKNFTLSITSLQTEDVATYYCQQYWSTPWTFGGGTTLEIR
notes: biotinylated for FACS; also called MHG-8

Biological target: T1, recombinant soluble human GARP-TGFβ1 complex (human, UniProt Q14392 20-628; P01137 30-390)
T1 construct: co-expressed in HEK293E, purified by the Strep-Tag; TGFβ consists of LAP and mature TGFβ; also called shGARP-TGFβ; rhGARP-TGFβ
T1 sequence (Q14392 other isoform, or with tags, fused parts or gaps limits assumed, chain 1 of 2): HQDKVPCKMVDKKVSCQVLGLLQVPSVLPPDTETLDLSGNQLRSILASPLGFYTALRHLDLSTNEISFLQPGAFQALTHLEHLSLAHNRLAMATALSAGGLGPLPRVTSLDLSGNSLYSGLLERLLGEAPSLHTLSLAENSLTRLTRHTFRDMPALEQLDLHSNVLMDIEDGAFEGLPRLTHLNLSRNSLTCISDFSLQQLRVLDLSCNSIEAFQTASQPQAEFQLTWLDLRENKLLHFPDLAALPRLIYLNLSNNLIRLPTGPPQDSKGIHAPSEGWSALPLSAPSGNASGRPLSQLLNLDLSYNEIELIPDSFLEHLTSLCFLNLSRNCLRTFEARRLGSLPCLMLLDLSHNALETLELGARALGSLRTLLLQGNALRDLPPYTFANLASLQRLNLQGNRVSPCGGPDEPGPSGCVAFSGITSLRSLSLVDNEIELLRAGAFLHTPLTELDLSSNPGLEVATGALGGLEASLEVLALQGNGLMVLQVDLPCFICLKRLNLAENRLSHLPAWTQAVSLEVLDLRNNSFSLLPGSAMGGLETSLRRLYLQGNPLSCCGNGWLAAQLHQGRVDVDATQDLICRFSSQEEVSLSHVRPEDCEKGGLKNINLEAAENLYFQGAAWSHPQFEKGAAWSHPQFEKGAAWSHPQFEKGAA
T1 sequence (P01137 30-390 limits assumed, chain 2 of 2): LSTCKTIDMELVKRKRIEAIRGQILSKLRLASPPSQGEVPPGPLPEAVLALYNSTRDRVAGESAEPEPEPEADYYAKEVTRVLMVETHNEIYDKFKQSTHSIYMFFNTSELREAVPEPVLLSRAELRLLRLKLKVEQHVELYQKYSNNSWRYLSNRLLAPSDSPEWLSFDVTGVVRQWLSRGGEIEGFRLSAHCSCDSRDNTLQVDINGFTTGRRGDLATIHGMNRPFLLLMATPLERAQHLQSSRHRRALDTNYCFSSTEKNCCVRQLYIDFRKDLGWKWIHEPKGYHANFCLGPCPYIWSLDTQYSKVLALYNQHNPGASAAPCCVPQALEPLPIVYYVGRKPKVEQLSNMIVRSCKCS
Assay: SPR (Biacore), hGARP-TGFβ1 immobilised

| Kd [nM] | fold improvement of KD (reference LHG-10-D) [fold] | fold improvement of ka (reference LHG-10-D) [fold] | fold improvement of kd (reference LHG-10-D) [fold] | koff [s⁻¹] | kon [M⁻¹ s⁻¹] | fold improvement of KD (reference LHG-10) [fold] | fold improvement of ka (reference LHG-10) [fold] | fold improvement of kd (reference LHG-10) [fold] | Binder |
| --- | --- | --- | --- | --- | --- | --- | --- | --- | --- |
| 0.0327 | 5.7 | 0.4 | 2.2 | 1.21e-05 | 371000 | – | – | – | B1 |
| 0.028 | 6.6 | 0.4 | 2.4 | 1.07e-05 | 383000 | – | – | – | B2 |
| 0.0331 | – | – | – | 1.37e-05 | 415000 | 4 | 0.6 | 2.3 | B3 |
| 0.0291 | – | – | – | 1.3e-05 | 448000 | 4.5 | 0.5 | 2.4 | B4 |
| 0.0222 | – | – | – | 6.38e-06 | 287000 | 5.9 | 0.8 | 4.9 | B5 |
| 0.0159 | – | – | – | 4.4e-06 | 276000 | 8.2 | 0.9 | 7.1 | B6 |
| 0.0216 | 8.6 | 0.5 | 4.3 | 6.15e-06 | 284000 | – | – | – | B7 |
| 0.185 | 1 | 1 | 1 | 2.62e-05 | 142000 | – | – | – | B8 |
| 0.0224 | 8.3 | 0.6 | 5.1 | 5.18e-06 | 231000 | – | – | – | B9 |

Biological target: T2, human TGF-β1 (latent) (human, UniProt P01137 30-390)
T2 construct: from transfected hTGFB1; also called hTGF-β1; hTGFB1
T2 sequence (P01137 30-390 limits assumed): as the sequence (P01137 30-390 limits assumed, chain 2 of 2) above
Assay: FACS, 293T + hTGFB1 only [cont.) B]
From the text: No latent TGF-β is detected on their surface with an anti-LAP antibody. Transfection of GARP or TGFB1 alone induces no or low surface LAP, respectively, whereas co-transfection of GARP and TGFB1 induces high surface LAP as a result of latent TGF-β1 binding and presentation by GARP (FIG. 14, part B, left histograms).

| binding result | Binder |
| --- | --- |
| no binding | B10 |
